{"source": "patent US20110183342A1", "binders": {"B1": {"name": "Mtb8.4 5-15 peptide … (peptide)", "peptide": "AVINTTCNYGQ", "modifications": "not checked"}}, "target": "HLA-B1501 (purified MHC class I molecule) (human)", "test": "competition with a radiolabeled probe peptide for purified MHC class I", "data": [{"binder": "B1", "values": [{"measurement": "IC50", "result": 10, "unit": "nM"}]}]}
